In the assay the target is T1, HER2 on BT474 breast tumour cells (human, UniProt P04626 23-1255).
T1 construct: whole, on cells; also called HER2-positive BT474 cells
As to the kind of experiment: flow cytometry, cross-linking of NK92MI and BT474 cells (data not shown). A general note: A flow cytometer gives signals particle by particle.

B1: Z199 scFv anti-NKG2A.C4bp(beta).Fc[knob]/2D3 VHH anti-HER2.C4bp(beta).Fc[hole] bispecific pseudo-IgG (bispecific antibody)
chain 1: RSQVKLQQSGGGLVKPGGSLKLSCAASGFTFSSYAMSWVRQSPEKRLEWVAEISSGGSYTYYPDTVTGRFTISRDNAKNTLYLEISSLRSEDTAMYYCTRHGDYPRFFDVWGAGTTVTVSSGGGGSGGGGSGGGGSQIVLTQSPALMSASPGEKVTMTCSASSSVSYIYWYQQKPRSSPKPWIYLTSNLASGVPARFSGSGSGTSYSLTISSMEAEDAATYYCQQWSGNPYTFGGGTKLEIKRAAASGAGGGGSSGAGGSAGGGGSSGGGGSAGGGGSIQEAPKPECEKALLAFQESKNLCEAMENFMQQLKESGMTMEELKYSLELKKAELKAKLLEPKSCDKTHTCPPCPAPELLGGPSVFLFPPKPKDTLMISRTPEVTCVVVDVSHEDPEVKFNWYVDGVEVHNAKTKPREEQYNSTYRVVSVLTVLHQDWLNGKEYKCKVSNKALPAPIEKTISKAKGQPREPQVYTLPPCRDELTKNQVSLWCLVKGFYPSDIAVEWESNGQPENNYKTTPPVLDSDGSFFLYSALTVDKSRWQQGNVFSCSVMHEALHNHYTQKSLSLSPGK
chain 2: not shown
notes: also called Z199/2D3
Consider B1, for which the binding result was “binds”.
